# According to the DeepSol protein solubility set:
# Assay: soluble on expression in E. coli; label from the status in PepcDB or PDB records
row,Sequence,soluble on expression in E. coli
1,MGSDKIHHHHHHMETWRFIDSGDRDPAYNMALDEALLNWHSEGLIPPTIRFYGWNPPTLSIGYFQKVQKEINMEMVEKHQLGFVRRPTGGRGVLHDKELTYSVIVTEEHPDMPASVTEAYRIISQGILEGFRDLGLDAYFAVPKTEEEKNALKNPRSAVCFDAPSWYELVVEGRKVAGSAQTRQKGVILQHGSIVLDIDEDKLFDLFNYPSERVRERMQRNFKNKAVPINELRDVPLSMEEVKKAFKDGFEKGLSIKLEPYTLTDAEEAEVKQIAKERYETDEWNFRK,not soluble
2,MAKELAEKAKEAFLDDDFDVAVDLYSKAIDLDPNCAAFFADRAQANIKIDNFTEAVVDANKAIELEPTLAKAYLRKGTACMKLEEYSTAKAALEKGASVAPNEPKFKKMIDECDLRIAEEEKDLVQPMPPSLPSSSTTPLATEADAPPVPIPAAPAKPMFRHEFYQKPEEAVVTIFAKKVPKENVTVEFGEQILSVVIDVAGEEAYHLQPRLFGKIIPEKCRFEVLSTKVEIRLAKAEIITWASLEYGKGQSVLPKPNVSSALSQRPVYPSSKPAKDWDKLEAEVKKQEKDEKLDGDAAMNKFFSDIYSSADEDMRRAMNKSFAESNGTVLSTNWKEVGTKKVESTPPDGMELKKWEY,not soluble
3,MTIAIVIGTHGWAAEQLLKTAEMLLGEQENVGWIDFVPGENAETLIEKYNAQLAKLDTTKGVLFLVDTWGGSPFNAASRIVVDKEHYEVIAGVNIPMLVETLMARDDDPSFDELVALAVETGREGVKALKAKPFAG,soluble
4,MGSDKIHHHHHHMSAELPLVFSVTSGKGGVGKTNMSVNIACCLSRMGKRVVLLDADLGLANVDVVLGLAPPRNLFHLFHEGADLGSILCEMPYGFRILPASSGVGEMLSLSTGQKLDLLEAMDVLEDSVDYLLVDTGAGINDNVLYFNIAAQERIVVLTPEPTSLTDAYALIKVMKLNHGVEHFKVLVNMAGDMKAAREVFSRLYKACDHFLSGVSLDLLGYVPRDRTVRRAVVEQTPFCVLDSRSPASLAVQKVAETVQTWDVSASLDGNIKFFWKKLLFR,not soluble
5,LSWKRCAGCGGKIADRFLLYAMDSYWHSRCLKCSSCQAQLGDIGTSSYTKSGMILCRNDYIRLFGNSGACSACGQSIPASELVMRAQGNVYHLKCFTCSTCRNRLVPGDRFHYINGSLFCEHDRPTALINGHLNSGGSGGSGGSGGDVMVVGEPTLMGGEFGDEDERLITRLENTQFDAANGIDDETRESGSIEF,soluble
6,MGSDKIHHHHHHMRYIDLAEMCIADISSGKLVKNSRMPSLRNFRQQHSISMTTALNCYQYLESLGWILARPQSGYFVCGQRMANEKPELVAFKSIMTDPKLPVVKPYYQHGNSSACAIDSAHNTSANHSVYQPANKDIVGPLGVARISTDFIPLDKLQNSFRRALKRQGSNISFYPDIQGEKILRDTLSSHFKSYDFHIPSDELLITNGCMDAIQTAIEICTDFGDAVAISSPCFNGILDMLAALGRKVVEIPSTEQGIDLVQLEQHMKSNQIKAGLFCTSHMNPQGISMTALQKQHLVNLAQTYKIPIIEDDVYIELAHGKVMPLPAKHWDKHGYILWCGSVSKTIAAGYRLGWCWPGRFTEQYLQKRKYCNQGVSSPVQLGLADFISNGDYAKHLKKLRVAIQQHTLSYQRYLTKNLPVASKISDPSGGFVLWIQVPNLNGRKLLALATEGNIDIRIGEQFSTRDLYQDYFRVNTGFMITEGNDKDTREEVDSQINKLMKLVKVASSERI,not soluble
7,MKKEEAKDIPIGGEIAVRQTGVPYGWLYRRTEPGYLLANGIALLECERDSAGRYKGGAGLDGMYLQTGRLYVPVLAGDGNVRAFQEVIPENYLAAAEMSVEGNYNQIDGIINNEPPKPSVLDALNQCREDAAKGRDAPENPPRGQEVER,not soluble
8,MAAPAASGLSRQVRSFSTSVVRPFAKLVRPPVQVYGIEGRYATALYSAASKEKKLDQVEKELLRVGQLLKDPKVSLAVLNPYIKRTVKVKSLNDITKREKFSPLTANLMNLLAENGRLGNTQGIISAFSTIMSVHRGEVPCTVTTASPLDDAVLSELKTVLKSFLSPNQILKLEIKTDPSIMGGMIVRIGEKYVDMSAKSKIQKLSKAMREML,soluble
9,MGHHHHHHSHMQHLENSSLFEGSLSKNLSLNSQALKENLYYEAGKMLAISLVHGGPSPGFFSKTLFNCLVYGPENTQPILDDVSDFDVAQIIIRINTATTVADLKSIINECYNYLELIGCLRLITTLSDKYMLVKDILGYHVIQRVHTPFESFKQGLKTLGVLEKIQAYPEAFCSILCHKPESLSAKILSELFTVHTLPDVKALGFWNSYLQAVEDGKSTATMEDILIFATGCSSIPPAGFKPTPSIECLHVDFPVGNKCNNCLAIPITNTYKEFQENMDFTIRNTLRLEKEESSHYIGH,not soluble
10,MSQTKIEWADKVWNPVSGCTKISEGCQNCYAERMSKRLAGRCGYPAEEPFKVTPHPEKLGEPLKWRKPLRIFVNSMSDLFHADVPDKFIINVLSMIAEASHHTFLILTKRPERMRELLNHDTIANDVWLQTSRGVNAERSPWPLPNLWLGVSAENQAAADERIPILLQTPAAVRFVSVEPMLSEVNLSRYLKRPICKHWGRNGDPNIYGRYFWGKQALVGAGWVGIDWVICGGETGPGARPMHPVWVRDLRDQCRVAGTPFFFKSFGEYVRVGECMNEEDDEEFYSKSSAAGTNVQRLNLQGGMGYHGPKSIYMQRIGKKRAGRELDGRTWEEFPLEHHHHHH,not soluble
11,MSLFQDNPLLAQLKQKIQETLPKKEGTIKASDKGFGFLEVDSKTSYFVPPPYMKKCMHGDKVVAFIRTENEREVAEPSELIEQSLTRFIGRVKLFKGKLNVAPDHPQLKKLSLKAKTKKGLNEADFQEGDWVVAHLVRHPLKGDDGFFVQISHKITDANDKIAPWWVTLAENDLPNSEPAGIDDWQLKDDADLVREDLTALPFVTIDGESTKDMDDALYAQQLPNGDFALTIAIADPTAYITPEDEMDKVARERGFTIYLPGRNIPMLPRDLADELCSLMENQVRPALCCSVTIRKDGVIGDDIRFFAANIKSHARLVYDHVSDWLETGSSEQWQPSEEIAQVVRDLYAFSQARANWRETHAVVFPDRPDYRFELSADNDVVAIHADMRRTANRLVEESMITANICAGKTLQTTFGFGVFNTHAGFKAEKMADVVELMAVNGAPNADAETLATVEGFAALRRWLATQETSYLDNRIRKYQSYSEIGNQPLPHFAMGLDVYATWTSPIRKYGDMINHRLLKAHILGKAPVQTPDETVGEELALHRKHHKIAERNVADWLYARTLADEPAKETRFQAEIFDINRPGMRVRLLENGAMAFIPGALILDNKERIECNGEDGTVLIDKEVVYKLGDVLEIVLTEVNQENRSLVGKPTQVFADLVSETQTSAEQPAEGAENNEPQVEGHHHHHH,soluble
12,MAHHHHHHMFNHDIIKEKDNYKQKIRTLYRNEKEAIKPCNHYDMKEEEKKKSGKIKRSIKLFGTPAVHGLSSHINNNSGTQLYYNFHNVLKRDKEKIQDDNLNYTLERDAGEDNTMQSIHESDKTETQECGKHYLYNKFDIYKSYLSYKKDLIRNEYDQDYKGITTSLLKGKDTHDDNKDNKDNDDNDDNDDNNDHNDHYDITRDDPCDDMCDDMCEDMCDDMCDDMCDDPCDDMCDDPCDDMCDDPCDDMCDDPCDDPYDHPYEEEKYSTYCDKGYLRNFLKNAIIRPNLQTFVGRKIISFLNEKERDIFSLTCKILFFEVYSVSNLKTLYKYQFISNEKRSFIWKAILLEDNTYISEEDYKELRNRKCLYDKAIEKDINRTFPKHPFFINKNMNMQDKLLDILKVCSLYFERIGYCQGMNYIAGILLLVFRKNIDTIRCFISMLKNYNIKGMFSYNFPQLKKIIYQLNLLIKAYIPKLFYYFKRKKIKIDFFCVNWFLTLFSQDLSFENTLKLWDLFFLFGMKILIKLTLILLYYHEDNIIHLSYDEALTYLKAITKTPFIDYLFQDDHFFTHLKKFKITNSMLTQIIMLKKSRQKINLLVKENNGKLRCSIQIKQNNKHTFTSKIKEGFRNLFKLNENYVDYINYFYQKGDGEENNGNQNNGEEYNGKEYNGNQNNGNQNNGKQNNGNQNNGKQNNGNQNNVKQNNGEDTNKNNNNDDINNNICHNNYSSTNFYKNFFQHFNCGNIFNNPNYSNEIVLTNTTCLSVHFNSNVLCNSQNIKNKNTIHSLENIKEEHDHTKNPSNFFLETNTYYDLNLTKSVDGNN,soluble
